Measurements from IntAct's records for PubMed 16239229.

B1: Co-chaperonin GroES (Escherichia coli (strain K12)), P0A6F9 (parent)
chain: MNIRPLHDRVIVKRKEVETKSAGGIVLTGSAAAKSTRGEVLAVGNGRILENGEVKPLDVKVGDIVIFNDGYGVKSEKIDNEEVLIMSESDILAIVEA

Variants of: B1
Details: with ch60_ecoli groEL

| effect of a mutation on the interaction | Variant |
| --- | --- |
| increasing interaction | T28C |
| increasing interaction strength | G29C |
| increasing interaction strength | S30C |
